Changes are numbered by the printed parent chain. Names and notes keep the numbering of the source. Where no end group is shown, it is not given here. Me3 = trimethyl
B1: H3K4me3 peptide (ARTKme3QTARKS) (peptide)
peptide: ARTK(Me3)QTARKS
B2: N496A: JMJ703 substitution mutant, methyl group-binding residue (protein, UniProt Q53WJ1 1-1238, looked up, variant N496A)
Lysine-specific demethylase …: MMGVTTTLNEDTEPSIPPGFGPFATLPLWGIHNDAKPAVTHSTPVQALQSIRKDSEECQPSAAVSRSDTPCSTSGTQTCRKSLRNRPPIDYSRFEHISDEDSDVEIVEKDVSSTRRRQQLPKGVLRGCAECSDCQKVIAKWNPAGARRPVLDEAPVFYPTEEEFEDTLKYIESIRPMAEPYGICRIVPPSSWKPPCLLKDKSIWEGSKFSTRVQKVDKLQNRKSSKKGRRGGMMKRRKLAESEENSATAHTQTGMQQSPERFGFEPGPEFTLQTFQKYADDFSKQYFRKDTSMDSVPSVEDIEGEYWRIVEVPTEEIEVIYGADLETGTFGSGFPKLSPETKSDAEDKYAQSGWNLNNLPRLQGSVLSFEGGDISGVLVPWVYVGMCFSSFCWHVEDHHLYSLNYMHWGAPKLWYGVPGKDAVNLESAMRKHLPELFEEQPDLLHNLVTQFSPSLLKSEGVHVYRCVQHEGEFVLTFPRAYHAGFNCGFNCAEAVAVAPIDWLPIGHNAVELYREQARKITISHDKLLLGAAREAIRAQWDILFLKRNTADNMRWKSICGADSTIFKALKARIETELVQRKTLGVPAQSRKMDAEFDSIDRECALCYYDLHLSASGCPCCPEKYACLVHAKQLCSCDWDKRFFLFRYDVNELNILADALGGKLSAIHRWGVSDLGLSLSSCVKREKVQDSKTVRRLTDGPRRSYMSQASAVSLVSSSTSNEQKDEGNKIMKIASPQTNNVCPSVEQRKSENISPLKEPCVRNELSCTTNSDSNGLQYNGGLGGHKGSAPGLPVSSSPSFSSNVATRPISTSSVSMKIVQGLVASKSCIQASSRTGDSRSLLGEHHNRSPAMIHDGTNMKSSLESSNNSCRLIASDYNATPCHSSKDQVLVTPGTNASVVTLKDSSQVHSASSQQFVRTGPWTQSASHEASSPSTSALKPSLDPPAMKNLYGGFTQGSAHPGPPSFSNQQPNDGRLQRTSESLPGVEARARGHPTVTAQPALEIHSRNGGAQKGPRIANVVHRFKCSVEPLEIGVVLSGRLWSSSQAIFPKGFRSRVKYFSIVDPIQMAYYISEILDAGMQGPLFMVKLENCPGEVFINLSPTKCWNMVRERLNMEIRRQLNMGKSNLPTLQPPGSVDGLEMFGLLSPPIVQAIWARDRDHICTEYWRSRPHVLIEDPNNRHMLSQGPPLLALRGLIQRANRDELQVLRSLMTNSNNLDDSSRQQAAHIIEEEIAKQLC
B3: Y321A: JMJ703 substitution mutant, α-ketoglutaric acid-binding residue (protein, UniProt Q53WJ1 1-1238, looked up, variant Y321A)
Lysine-specific demethylase …: B2 Lysine-specific demethylase … with Y321A, A496N
B4: N404A: JMJ703 substitution mutant, α-ketoglutaric acid-binding residue (protein, UniProt Q53WJ1 1-1238, looked up, variant N404A)
Lysine-specific demethylase …: B2 Lysine-specific demethylase … with N404A, A496N
B5: K412A: JMJ703 substitution mutant, α-ketoglutaric acid-binding residue (protein, UniProt Q53WJ1 1-1238, looked up, variant K412A)
Lysine-specific demethylase …: B2 Lysine-specific demethylase … with K412A, A496N

Experiments:
[1] = target: c-JMJ703, catalytic core domain of JMJ703 (amino acids 139 to 498) (rice) (UniProt Q53WJ1); assay: SPR; BIAcore 3000, 25°C; c-JMJ703 amine-coupled to a CM5 chip; peptides injected at various concentrations at 10 µL/min for 2 min in 10 mM HEPES pH 7.5, 150 mM NaCl, 0.005% Tween20; reference flow cell subtracted
[2] = target: FA-J3NCZ, FLAG:HA-tagged JmjN-JmjC-zinc finger region of JMJ703 (amino acids 113 to 700) (rice) (UniProt Q53WJ1); assay: SPR; J3NCZ (FA-J3NCZ) with different concentrations of peptide; set-up for this protein not told in the methods
[3] = target: T1, FA-J3NCZ, FLAG:HA-tagged JmjN-JmjC-zinc finger region of JMJ703 (amino acids 113 to 700) (rice, UniProt Q53WJ1 113-700); assay: as above; settings: both partners purified
T1 construct: JMJ703, rice; JmjN-JmjC-zinc finger region between amino acids 113 and 700; the only production of J3NCZ that the methods tell is the FLAG:HA-tagged one from tobacco cells (vector pFA121); source: tobacco leaf cells (Agrobacterium infection), purified with Anti-FLAG M2 magnetic beads
T1 sequence (looked up): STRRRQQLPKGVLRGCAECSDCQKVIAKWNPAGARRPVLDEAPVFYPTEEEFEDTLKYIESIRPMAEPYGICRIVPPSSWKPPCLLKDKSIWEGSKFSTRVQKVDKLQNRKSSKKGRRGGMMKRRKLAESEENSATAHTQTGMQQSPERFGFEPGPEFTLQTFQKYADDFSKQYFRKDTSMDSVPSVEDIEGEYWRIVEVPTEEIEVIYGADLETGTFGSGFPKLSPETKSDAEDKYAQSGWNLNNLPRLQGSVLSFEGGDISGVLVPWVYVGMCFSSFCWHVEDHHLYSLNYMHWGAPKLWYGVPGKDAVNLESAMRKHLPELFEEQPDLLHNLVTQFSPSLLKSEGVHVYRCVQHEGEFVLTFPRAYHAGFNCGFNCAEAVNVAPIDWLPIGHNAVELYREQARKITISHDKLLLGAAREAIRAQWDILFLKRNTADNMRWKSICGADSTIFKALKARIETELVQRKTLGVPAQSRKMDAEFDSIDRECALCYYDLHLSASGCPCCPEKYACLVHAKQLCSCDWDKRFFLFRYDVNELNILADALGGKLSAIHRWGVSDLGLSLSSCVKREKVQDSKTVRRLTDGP

[4] = target: T2, c-JMJ703, catalytic core domain of JMJ703 (amino acids 139 to 498) (rice, UniProt Q53WJ1 139-498); assay: SPR; BIAcore 3000, 25°C; c-JMJ703 amine-coupled to a CM5 chip; peptides injected at various concentrations at 10 µL/min for 2 min in 10 mM HEPES pH 7.5, 150 mM NaCl, 0.005% Tween20; reference flow cell subtracted; settings: both partners purified
T2 construct: JMJ703, rice JmjC domain-containing histone H3K4 demethylase; amino acids 139 to 498, covering the JmjN domain (A139-K199), long beta-hairpin (D200-T271), mixed domain (L272-V377) and JmjC domain (L378-A498); Cloned into pET-28a with BamHI and XhoI; also called J3NC; catalytic core of JMJ703; source: E. coli Rosetta (DE3), purified (Ni-NTA, thrombin cleavage, Hitrap Q anion exchange)

H3K4me3 = assay: H3K4 demethylation assay in tobacco cells of JMJ703 substitution mutants, H3K4me3; assay type: cell-based; settings: mutant expressed transiently in tobacco cells, immunostaining of nuclei, at least 30 nuclei per transfection
Experimental: (§1) The cDNA fragment of the J3NCZ region was amplified using primers FAJ3NCZ-F and FAJ3NCZ-R and then cloned into pFA121 vector modified from pBI121 (GenBank: AF485783.1), in which GUS was replaced by 2×FLAG∶2×HA tag. The pFA121-J3NCZ plasmid was transferred into Agrobacterium tumefaciens strain EHA105 cells for tobacco infection with the help of Agrobacterium cells harboring P19 plasmids. For in vivo histone demethylation assay, tobacco infection and nuclei isolation were performed as previously described. The immunostaining protocol was modified from http://sites.bio.indiana.edu/~pikaardlab. Briefly, the nucleus solution was placed on a poly-lysine coated slide, air dried, and then refixed with 4% formaldehyde in KPBS (1.28 M NaCl, 20 mM KCl, 80 mM Na2HPO4, 20 mM KH2PO4, pH7.2) containing 1% Triton X-100 for 20 min. After 3 washes with KPBS-1% Triton, slides were blocked with blocking solution (1% BSA in KPBS-1% Triton) and incubated at 37°C for 30 min. The blocking solution was washed off with KPBS-1% Triton and the slides were incubated with both anti-HA and histone méthylation specific antibodies diluted in blocking solution to 1∶300 at 4°C overnight. After washing with KPBS, slides were blocked and incubated with fluorescent-labeled antibodies at 37°C for 2 h. After washing with KPBS thrice, nuclei were stained with 5 µg/mL 4,6-diamidino-2-phenylindole (DAPI), coated with a drop of VECTASHIELD Mounting Medium (H-1000, Vector Laboratories), and then covered with a coverslip followed by confocal microscope (Leica) detection. In vitro histone demethylation assays were performed as previously described. FA-J3NCZ was purified after overexpression with Anti-FLAG M2 magnetic beads according the manufacturer's instruction (Sigma).
(§2) Supplementary file pgen.1003239.s006.tif: Figure S6 Demethylation assays for JMJ703 substitution mutants that have been produced based on the structural data. The mutant names are labeled at the top left corner of each panel. Image panels from left to right are staining by DAPI, anti-HA and anti-methylated histones, respectively. Bar = 10 µm. At least 30 nuclei that expressed JMJ703 per transfection were observed and imaged. (TIF) Click here for additional data file.

H3K4me2 = assay: H3K4 demethylation assay in tobacco cells of JMJ703 substitution mutants, H3K4me2; assay type: cell-based; settings: mutant expressed transiently in tobacco cells, immunostaining of nuclei, at least 30 nuclei per transfection
Experimental: as §1, §2

H3K4me1 = assay: H3K4 demethylation assay in tobacco cells of JMJ703 substitution mutants, H3K4me1; assay type: cell-based; settings: mutant expressed transiently in tobacco cells, immunostaining of nuclei, at least 30 nuclei per transfection
Experimental: as §1, §2

Row | Molecule | Kd [1] [µM] | H3K4me3 demethylation activity (H3K4me3) | H3K4me2 demethylation activity (H3K4me2) | H3K4me1 demethylation activity (H3K4me1) | other results
1 | H3K4me0 peptide | 76.6 | – | – | – | –
2 | H3K4me1 peptide | 28.9 | – | – | – | Kd [2]: 12.6 µM
3 | H3K4me2 peptide | 19.3 | – | – | – | Kd [2]: 15.1 µM
4 | B1 | – | – | – | – | Kd [3]: 15.9 µM; Kd [4]: 30.1 µM
5 | B2 | – | yes | yes | no | –
6 | B3 | – | yes | yes | no | –
7 | B4 | – | yes | yes | yes | –
8 | B5 | – | no | no | no | –

From paper PMC3554631, “Structural Basis of a Histone H3 Lysine 4 Demethylase Required for Stem Elongation in Rice” (PLoS Genetics, 2013)
